{"source": "patent US7094597", "molecular_target": "purified HLA MHC Class II molecules (human)", "test": "ELISA, biotinylated peptides on immobilized purified HLA class II molecules (FIG. 5)", "data": [{"substance": "dnaJp1 peptide (…)", "values": [{"measurement": "fold stronger binding than S1 and S6 peptides", "value": "> 100", "unit": "fold"}]}]}
